# Data published in IntAct's records for PubMed 11069292.
# B1: Transcription factor PIF3 (Arabidopsis thaliana (Mouse-ear cress)), O80536 (parent)
# chain: MPLFELFRLTKAKLESAQDRNPSPPVDEVVELVWENGQISTQSQSSRSRNIPPPQANSSRAREIGNGSKTTMVDEIPMSVPSLMTGLSQDDDFVPWLNHHPSLDGYCSDFLRDVSSPVTVNEQESDMAVNQTAFPLFQRRKDGNESAPAASSSQYNGFQSHSLYGSDRARDLPSQQTNPDRFTQTQEPLITSNKPSLVNFSHFLRPATFAKTTNNNLHDTKEKSPQSPPNVFQTRVLGAKDSEDKVLNESVASATPKDNQKACLISEDSCRKDQESEKAVVCSSVGSGNSLDGPSESPSLSLKRKHSNIQDIDCHSEDVEEESGDGRKEAGPSRTGLGSKRSRSAEVHNLSERRRRDRINEKMRALQELIPNCNKVDKASMLDEAIEYLKSLQLQVQIMSMASGYYLPPAVMFPPGMGHYPAAAAAMAMGMGMPYAMGLPDLSRGGSSVNHGPQFQVSGMQQQPVAMGIPRVSGGGIFAGSSTIGNGSTRDLSGSKDQTTTNNNSNLKPIKRKQGSSDQFCGSS
# Variants of: B1
# Settings: with phyb_arath PHYB
row,Variant,effect of a mutation on the interaction
1,G165V,decreasing interaction
